Data on four molecules can be found in patent US20200199207A1 (MABYLON, published 2020).

First the molecules themselves.
T1: Peptide 11 (peanut)
T1 construct: also called linear Ara h 2 peptide 11
T1 peptide: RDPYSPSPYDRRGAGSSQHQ

T2: Peptide 12 (peanut)
T2 construct: also called linear Ara h 2 peptide 12
T2 peptide: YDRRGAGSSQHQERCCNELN

T3: Peptide 13 (peanut)
T3 construct: also called linear Ara h 2 peptide 13
T3 peptide: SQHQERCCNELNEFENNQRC

T4: Peptide 8 (peanut)
T4 construct: also called linear Ara h 2 peptide 8
T4 peptide: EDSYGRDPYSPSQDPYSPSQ

T5: Peptide 7 (peanut)
T5 construct: also called linear Ara h 2 peptide 7
T5 peptide: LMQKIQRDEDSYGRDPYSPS

T6: Peptide 10 (peanut)
T6 construct: also called linear Ara h 2 peptide 10
T6 peptide: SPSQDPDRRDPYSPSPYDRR

T7: Peptide 20 (peanut)
T7 construct: also called linear Ara h 2 peptide 20
T7 peptide: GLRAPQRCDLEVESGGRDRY

T8: Peptide 18 (peanut)
T8 construct: also called linear Ara h 2 peptide 18
T8 peptide: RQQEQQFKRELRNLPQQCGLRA

T9: Peptide 5 (peanut)
T9 construct: also called linear Ara h 2 peptide 5
T9 peptide: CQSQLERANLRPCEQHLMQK

T10: Peptide 2 (peanut)
T10 construct: also called linear Ara h 2 peptide 2
T10 peptide: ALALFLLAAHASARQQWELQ

T11: Peptide 9 (peanut)
T11 construct: also called linear Ara h 2 peptide 9
T11 peptide: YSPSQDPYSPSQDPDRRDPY

T12: Ara h 2 (peanut, UniProt Q6PSU2 22-172)
T12 construct: also called full length Ara h 2
T12 sequence (looked up): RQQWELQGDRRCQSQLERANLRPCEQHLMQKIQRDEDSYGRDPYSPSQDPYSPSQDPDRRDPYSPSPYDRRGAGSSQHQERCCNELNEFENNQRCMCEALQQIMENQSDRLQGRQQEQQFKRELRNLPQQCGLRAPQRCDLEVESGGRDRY

B1: h32B10 (antibody, V domains shown)
VH: QVQLVQSGAEVKKPGASVKVSCRASGYIFRNFDINWVRQATGQGLEWMGWMSPKSGDTGYAQKFQGRVTMTRDTSINTAYMELSSLTSEDSAVYYCARGVDGTNWGQGTRVTVSS
VL: DIVMTQSPDSLGVSLGERATISCKSSQSILDNSNNKNFIAWFQQKPGQPPKLLIYWASARESGVPDRFSGSGSGTEFTLTINSLQAEDVAVYYCYQYYSTPHTFGQGTKLDLR
notes: Recombinant human IgG; also called hMAb 32B10
B2: h12G10 (antibody, human IgG1, V domains shown)
VH: EVQLLESGGRLLRPGGSLSLSCVASGFYFGDFGMSWVRQVPGKGLEWVSGIDWSGRSTGYVDSMKGRLTISRDNDKSSLYLQMNDLRGEDTAVYYCARVGRLCSGDSCDSMGAFDLWGQGTMVTVSS
VL: DIQLTQSPSTLSASIGDSVTITCRASQNIDNWLAWYQQKPGKAPRLLIYKASSLGSGVSSKFRGSGFGTEFTLTITSLQPDDFATYYCQKSNGYSRTFGQGTKVDIK
notes: Recombinant human IgG; also called hMAb 12G10
B3: h37D5 (antibody, V domains shown)
VH: EEQLVESGGRLLRPGESLSLSCAAVGFNFGDFGMAWVRQPPGKGLEWVAGINWSGHSTGFVDSMKGRLTISRDSAKSSLFLQMNSLRGEDTAVYYCARVGRLCSGDICDSMGAFDLWGQGTMVTVSS
VL: B2 VL with L4M, S18R, N28T, K39R, R45K, K50Q, G55Q, K61R, F67S, D105E
notes: Recombinant human IgG; also called hMAb 37D5
B4: h4B2 (antibody, V domains shown)
VH: QVQLQEAGPRLVKPSQTLSVTCTVSGASITIGGYYWSWIRQHPGKGLEWMGYIYSNGRTYYNPSLKSRIAMSIDTSKNQFSLKLTSVTAADTAIYFCAREAWETPLWGQGTLITVSS
VL: DIQMTQSPSSLSASVGDRVTITCQANQDIVNSLNWFQHKPGTAPKVLIYDASKLETGVPSRFSGSGSGTHFTFTISGLQPEDFATYFCQQYENLPHTFGQGTKLEIR
notes: Recombinant human IgG; also called hMAb 4B2

Positions count from the first letter of the chain named.

The target in one assay is T13, nAra h 3 (peanut).
T13 construct: Bought natural allergen; also called naturally extracted Ara h 3
Description: ELISA, antigen-coated plate.
The molecule B1 gave an EC50 of 0.0049 µg/mL.
B2 yielded an EC50 of 0.0337 µg/mL. Against the preceding molecule, the EC50 is about 6.9-fold higher.
B3 returned a 50% effective concentration (EC50) of 0.0652 µg/mL.

Another assay deals with T1, Peptide 11. The assay can be described thus: competition ELISA, peptide in solution vs coated Ara h 2. The gist of the method:
(§1)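 Antibody ([…]) pre-incubated 1 h at room temperature with serially diluted 20-mer overlapping linear Ara h 2 peptides (100 μM to 0.19 nM), then applied to plates coated with full-length Ara h 2 (0.05 μg/ml). Bound antibody detected by HRP anti-human Fc-gamma with TMB.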
On the technique in general: ELISA stands for enzyme-linked immunosorbent assay.
With B1, the binding result was “no binding (tested: 100 µM)”.
The same measure, in the same setting: to B2 belongs “binds”.
Still for that read-out and setting: next, B3: “binds”; B4: “no binding (tested: 100 µM)”.

The next assay has as its target T2, Peptide 12. Described as above. The gist of the method: as §1
In the case of B1, the binding result is reported as “no binding (tested: 100 µM)”.
On to B2, for which the binding result is “no binding (tested: 100 µM)”.
Same read-out and setting: to B3 belongs “no binding (tested: 100 µM)”; to B4, “no binding (tested: 100 µM)”.

In the next assay the target is T3, Peptide 13. Described as above. The gist of the method: as §1
Take B1: the binding result is on record as “no binding (tested: 100 µM)”.
The same measure, in the same setting: next, B2: “no binding (tested: 100 µM)”; B3: “no binding (tested: 100 µM)”; B4: “no binding (tested: 100 µM)”.

For the next assay, the target named is T4, Peptide 8. Described as above. The gist of the method: as §1
Turning to B1, the binding result is recorded as “no binding (tested: 100 µM)”.
On the same count and under the same terms, next, B2: “binds”; B3: “binds”.
Take B4: the binding result is “no binding (tested: 100 µM)”.

Another assay concerns the target T5, Peptide 7. The assay is described as above. Put shortly: as §1
As to B1, the binding result is reported as “no binding (tested: 100 µM)”.
Same read-out and setting: to B2 belongs “no binding (tested: 100 µM)”; to B3, “no binding (tested: 100 µM)”.
Regarding B4, the binding result was “no binding (tested: 100 µM)”.

In another assay the target is T6, Peptide 10. The assay is described as above. The gist of the method: as §1
Take B1: the binding result is on record as “no binding (tested: 100 µM)”.
Still for that read-out and setting: to B2 belongs “binds”; to B3, “binds”.
On the same count and under the same terms, next, B4: “no binding (tested: 100 µM)”.

The target in another assay is T7, Peptide 20. The assay is described as above. The gist of the method:
as §1
In the case of B1, the binding result was “no binding (tested: 100 µM)”.
The same measure, in the same setting: to B2 belongs “no binding (tested: 100 µM)”; to B3, “no binding (tested: 100 µM)”; to B4, “no binding (tested: 100 µM)”.

The next assay addresses T8, Peptide 18. The description is as above. The gist of the method:
as §1
For the molecule B1, the binding result is “no binding (tested: 100 µM)”.
On the same count and under the same terms, to B2 belongs “no binding (tested: 100 µM)”; to B3, “no binding (tested: 100 µM)”; to B4, “no binding (tested: 100 µM)”.

For another assay, the target named is T9, Peptide 5. Described as above. The gist of the method: as §1
Turning to B1, the binding result is given as “no binding (tested: 100 µM)”.
Consider B2, for which the binding result was “no binding (tested: 100 µM)”.
On the same count and under the same terms, to B3 belongs “no binding (tested: 100 µM)”; to B4, “no binding (tested: 100 µM)”.

A further assay concerns the target T10, Peptide 2. The description is as above. The gist of the method: as §1
Take B1: the binding result is “no binding (tested: 100 µM)”.
Same read-out and setting: next, B2: “no binding (tested: 100 µM)”.
On the same count and under the same terms, to B3 belongs “no binding (tested: 100 µM)”; to B4, “no binding (tested: 100 µM)”.

The next assay deals with T11, Peptide 9. The description is as above. The gist of the method: as §1
Consider B1, for which the binding result is “no binding (tested: 100 µM)”.
Still for that read-out and setting: next, B2: “binds”.
In the case of B3, the binding result is “binds”.
Take B4: the binding result was “no binding (tested: 100 µM)”.

The target in the next assay is T12, Ara h 2. Description: competition ELISA on coated Ara h 2; competitor: Patient F serum IgE. On the procedure:
(§2) Microplates were coated with […] of Ara h 1, Ara h 2, Ara h 3, or Ara h 6, overnight at 4° C. After washing with PBS-Tween 0.05% and blocking with 2% BSA, plates were incubated with increasing concentrations of peanut human IgG antibodies for 1 h at room temperature. Subsequently, plates were incubated with different sera dilutions or different concentrations of murine antibody (as positive control). IgE levels were detected using anti-human HRP-conjugated Fc-epsilon-specific secondary antibody (Abcam, Cambridge, UK) followed by addition of TMB solution (TMB, Sigma, Buchs, Switzerland). Binding of murine antibodies was detected using goat anti-mouse IgG (H+L)-HRP (Jackson ImmunoResearch, West Grove, Pa., USA).
As to B1, the “% inhibition of IgE binding” value was found to be 23.1%.
Same read-out and setting: next, B2: 45.3%; B3: 36.2%.
The same measure, in the same setting: next, B4: 30.8%.

For the next assay, the target named is T12, Ara h 2. Description: competition ELISA on coated Ara h 2; control: Healthy donor serum. As to the method: as §2
Take B1: the “% inhibition of IgE binding” value is 0%.
B2: the “% inhibition of IgE binding” value is 0%.
In the case of B3, the “% inhibition of IgE binding” value turned out to be 2.27%.
Same read-out and setting: to B4 belongs 0%.

The target of the next assay is T12, Ara h 2. The assay can be described thus: competition ELISA on coated Ara h 2; competitor: Patient G serum IgE. On the procedure: as §2
For the molecule B1, the “% inhibition of IgE binding” value was 32.8%.
Same read-out and setting: to B2 belongs 25.7%; to B3, 45.3%; to B4, 31.8%.

In the next assay the target is T12, Ara h 2. Description: competition ELISA on coated Ara h 2; competitor: Patient A serum IgE. As to the method:
as §2
On to B1, for which the “% inhibition of IgE binding” value was 27.8%.
Still for that read-out and setting: next, B2: 13.8%; B3: 27.8%; B4: 39.7%.

The target of the next assay is T12, Ara h 2. The assay can be described thus: competition ELISA on coated Ara h 2; competitor: Patient D serum IgE. On the procedure:
as §2
As to B1, the “% inhibition of IgE binding” value was 8.5%.
On to B2, for which the “% inhibition of IgE binding” value was 35.7%.
As for B3, the “% inhibition of IgE binding” value was 35.5%.
Same read-out and setting: next, B4: 9.23%.

Another assay has as its target T12, Ara h 2. Description: competition ELISA on coated Ara h 2; competitor: Patient B serum IgE. As to the method: as §2
Turning to B1, the “% inhibition of IgE binding” value turned out to be 26.7%.
On the same count and under the same terms, next, B2: 31.2%; B3: 29.6%.
For B4, the “% inhibition of IgE binding” value came out at 30.6%.

The EC50 is the concentration that produces a half-maximal response. A high value points to weaker potency.
